In patent US20200140562A1 (Innovent, published 2020):

Columns and labels:
[1] = biological target: T1, human OX40 on cells (CHO-hOX40, 293HEK-hOX40, Jurkat-hOX40, activated primary CD4+ T cells) (human, UniProt P43489 29-277); assay: cell-based or functional assay
T1 sequence (looked up): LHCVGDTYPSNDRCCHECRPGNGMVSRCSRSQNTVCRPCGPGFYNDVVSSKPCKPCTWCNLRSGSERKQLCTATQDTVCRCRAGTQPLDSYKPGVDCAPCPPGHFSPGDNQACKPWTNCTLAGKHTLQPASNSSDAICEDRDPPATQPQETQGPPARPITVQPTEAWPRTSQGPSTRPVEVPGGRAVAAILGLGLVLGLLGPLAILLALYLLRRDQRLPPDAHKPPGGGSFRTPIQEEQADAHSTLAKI

[2] = biological target: T1, human OX40 on cells (CHO-hOX40, …); assay: flow cytometry, CHO-hOX40, 100 nM
[3] = biological target: T1, human OX40 on cells (CHO-hOX40, …); assay: flow cytometry, 293HEK-hOX40, 8 nM
[4] = biological target: T1, human OX40 on cells (CHO-hOX40, …); assay: flow cytometry, 293HEK-hOX40, 40 nM
[5] = biological target: T1, human OX40 on cells (CHO-hOX40, …); assay: flow cytometry, 293HEK-hOX40, 1.6 nM
[6] = biological target: T1, human OX40 on cells (CHO-hOX40, …); assay: flow cytometry, 293HEK-hOX40, 200 nM
[7] = biological target: T2, human OX40_Fc (R&D Systems) (human, UniProt P43489 29-216); assay: BLI, IgG1 on tip, hOX40-Fc 50 nM, avid
T2 construct: Bought

[8] = biological target: T3, cyno OX40_Fc (Acro Biosystems) (cyno); assay: BLI, IgG1 on tip, cyno OX40-Fc 100 nM, avid
T3 construct: Bought

[9] = biological target: T4, mouse OX40Fc (Acro Biosystems) (mouse, UniProt P47741 20-211, limits assumed); assay: BLI, IgG1 on tip, mouse OX40-Fc 100 nM, avid
T4 construct: Bought; not shown: Fc
T4 sequence (looked up): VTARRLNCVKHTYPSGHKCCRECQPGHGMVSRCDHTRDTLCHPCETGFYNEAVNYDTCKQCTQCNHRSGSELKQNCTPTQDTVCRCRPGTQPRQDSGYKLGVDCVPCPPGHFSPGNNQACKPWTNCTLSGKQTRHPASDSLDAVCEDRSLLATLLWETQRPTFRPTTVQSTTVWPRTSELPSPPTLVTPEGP

[10] = biological target: T1, human OX40 on cells (CHO-hOX40, …); assay: flow cytometry, MFI on CHO-hOX40 over wild-type CHO
[11] = biological target: T1, human OX40 on cells (CHO-hOX40, …); assay: flow cytometry, activated CD4+ T cells, donor 1, 100 nM
[12] = biological target: T1, human OX40 on cells (CHO-hOX40, …); assay: flow cytometry, activated CD4+ T cells, donor 2, 100 nM
[13] = biological target: T1, human OX40 on cells (CHO-hOX40, …); assay: flow cytometry, CHO-hOX40, 100 nM blocker, competitor OX40L-hFc-fluorescein
[14] = biological target: T1, human OX40 on cells (CHO-hOX40, …); assay: flow cytometry, CHO-hOX40
[15] = biological target: T1, human OX40 on cells (CHO-hOX40, …); assay: flow cytometry, CHO-hOX40, 25 nM
[16] = biological target: T1, human OX40 on cells (CHO-hOX40, …); assay: flow cytometry, CHO-hOX40, 50 nM
[17] = biological target: T1, human OX40 on cells (CHO-hOX40, …); assay: flow cytometry, CHO-hOX40, 100 nM; remark: listed apart in the source
[18] = biological target: T1, human OX40 on cells (CHO-hOX40, …); assay: flow cytometry, CHO-hOX40, 200 nM
[19] = biological target: T1, human OX40 on cells (CHO-hOX40, …); assay: flow cytometry, CHO-hOX40, 12.5 nM
[20] = biological target: T1, human OX40 on cells (CHO-hOX40, …); assay: flow cytometry, CHO-hOX40, 6.25 nM
[21] = biological target: T1, human OX40 on cells (CHO-hOX40, …); assay: flow cytometry, CHO-hOX40, 3.125 nM
[22] = biological target: T1, human OX40 on cells (CHO-hOX40, …); assay: flow cytometry, CHO-hOX40, 1.5625 nM
[23] = biological target: T1, human OX40 on cells (CHO-hOX40, …); assay: flow cytometry, CHO-hOX40, 0.78125 nM
[24] = biological target: T1, human OX40 on cells (CHO-hOX40, …); assay: flow cytometry, CHO-hOX40, 0.390625 nM
[25] = biological target: T1, human OX40 on cells (CHO-hOX40, …); assay: flow cytometry, CHO-hOX40, 0.1953125 nM
[26] = biological target: T1, human OX40 on cells (CHO-hOX40, …); assay: flow cytometry, CHO-hOX40, 0.09765625 nM
[27] = biological target: T1, human OX40 on cells (CHO-hOX40, …); assay: flow cytometry, CHO-hOX40, 0.024414063 nM
[28] = biological target: T1, human OX40 on cells (CHO-hOX40, …); assay: flow cytometry, CHO-hOX40, 0.048828125 nM
[29] = biological target: T4, mouse OX40Fc (Acro Biosystems); assay: BLI, IgG1 on tip, mouse OX40-Fc in solution

NFkB-Luc fold change in Jurkat stimulated by PHA+ anti-CD28 [1] [fold over IgG4 control] | NFkB-Luc fold change in Jurkat stimulated by anti-CD3+ anti-CD28 [1] [fold over IgG4 control] | CHO-OX40 binding intensity (MFI) [2] [MFI] | MFI [3] [MFI] | MFI [4] [MFI] | MFI [5] [MFI] | MFI [6] [MFI] | Kd [7] [nM] | Kd [8] [nM] | Kd [9] [nM] | Fold difference [10] [fold] | MFI [11] [MFI] | MFI [12] [MFI] | MFI of OX40L signal on CHO-OX40 cells [13] [MFI] | Binder | other results
3.63 | 5.77 | 143000 | 1.73e+06 | 1.85e+06 | 977000 | 1.7e+06 | 3.68 | 9.86 | 3.76 | 1470 | 43100 | 62600 | 34300 | ADI-20048, IgG1 format (antibody, V domains shown, Made in yeast) VH: QVQLQESGPGLVKPSETLSLTCTVSGGSISSYYWSWIRQPPGKGLEWIGYIYSSGSTNYNPSLKSRVTISVDTSKNQFSLKLSSVTAADTAVYYCARDAPGGSSYQDYYMDVWGKGTTVTVSS VL: EIVLTQSPATLSLSPGERATLSCRASQSVSSYLAWFQQKPGQAPRLLIYDASNRATGIPARFSGSGSGTDFTLTISSLEPEDFAVYYCQQAFSMPPTFGGGTKVEIKR | 
3.79 | 3.98 | 152000 | 2e+06 | 2.18e+06 | 734000 | 2.41e+06 | 1.22 | 5.52 |  | 2460 | 84400 | 115000 | 24000 | ADI-20113, IgG1 format (antibody, V domains shown, Made in yeast) VH: QVQLVESGGGVVQPGRSLRLSCAASGFTFSSYGMHWVRQAPGKGLEWVAVISYDGSNKYYADSVKGRFTISRDNSKNTLYLQMNSLRAEDTAVYYCARGRPWYSETGTSAFDIWGQGTMVTVSS VL: EIVMTQSPATLSVSPGERATLSCRASQSVSSNLAWYQQKPGQAPRLLIYSASTRATGIPARFSGSGSGTEFTLTISSLQSEDFAVYYCQQHNVYPPYTFGGGTKVEIKR | binding result [29]: no binding (tested: 100 nM)

Second part, the binder before the results:

Binder | NFkB-Luc fold change in Jurkat stimulated by PHA+ anti-CD28 [1] [fold over IgG4 control] | NFkB-Luc fold change in Jurkat stimulated by anti-CD3+ anti-CD28 [1] [fold over IgG4 control] | CHO-OX40 binding intensity (MFI) [2] [MFI] | MFI [3] [MFI] | MFI [4] [MFI] | MFI [5] [MFI] | MFI [6] [MFI] | Kd [7] [nM] | Kd [8] [nM] | Kd [9] [nM] | Fold difference [10] [fold] | MFI [11] [MFI] | MFI [12] [MFI] | MFI of OX40L signal on CHO-OX40 cells [13] [MFI] | other results
Hu106-222 (IgG2) (antibody, V domains shown) VH: QVQLVQSGSELKKPGASVKVSCKASGYTFTDYSMHWVRQAPGQGLKWMGWINTETGEPTYADDFKGRFVFSLDTSVSTAYLQISSLKAEDTAVYYCANPYYDYVSYYAMDYWGQGTLVTVSS VL: DIQMTQSPSSLSASVGDRVTITCKASQDVSTAVAWYQQKPGKAPKLLIYSASYLYTGVPSRFSGSGSGTDFTFTISSLQPEDIATYYCQQHYSTPRTFGQGTKLEIK |  |  |  |  |  |  |  |  |  |  |  |  |  |  | EC50 [14]: 8.37 nM; MFI [15]: 2.16e+06 MFI; MFI [16]: 1.59e+06 MFI; MFI [17]: 2.39e+06 MFI; MFI [18]: 2.55e+06 MFI; MFI [19]: 1.52e+06 MFI; MFI [20]: 1.06e+06 MFI; MFI [21]: 660000 MFI; MFI [22]: 334000 MFI; MFI [23]: 188000 MFI; MFI [24]: 101000 MFI; MFI [25]: 49500 MFI; MFI [26]: 28200 MFI; MFI [27]: 14600 MFI; MFI [28]: 15400 MFI
ADI-20096, IgG1 format (antibody, V domains shown, Made in yeast) VH: EVQLVESGGGLVKPGGSLRLSCAASGFTFSSYSMNWVRQAPGKGLEWVSSISSSSNYIYYADSVKGRFTISRDNAKNSLYLQMNSLRAEDTAVYYCARGAPLGYSWEYFDLWGRGTLVTVSS VL: not shown | 4.57 | 5.12 | 133000 | 1.1e+06 | 1.82e+06 | 417000 | 1.84e+06 | 3.36 |  | 5.41 | 1970 | 54600 | 75400 | 31900 | 
